In the supplement of paper PMC7125110:
± gives the standard error. For some of these results: This sample holds only a part of the variants without activity.

B1: glmS ribozyme (parent)
chain: AUAAAAGCGCCAGAACUACAGAAAUGUAGUUGACGAGGAGGAGGUUUAUCGAAUUUUCGGCGGAUGCCUCCAAA

Experiments:
Settings in all cases: with glucosamine-6-phosphate
glucosamine-6-phosphate [1] = variants of: B1; assay: kcat; higher = faster cleavage; RNA array
Outline: (§1)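 Weighted Michaelis–Menten fits across concentrations supplied kcat and KM, based on kobs from one- or two-exponential decay fits to normalised per-tile medians. The data came from barcoded ribozyme variants transcribed in situ by E. coli RNA polymerase on sequenced MiSeq chips and tracked at 37 °C by a hybridised Cy3 probe. Glucosamine-6-phosphate (40 μM to 10 mM) in HEPES/KCl/Mg(OAc)2 buffer was flowed in.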

glucosamine-6-phosphate [2] = variants of: B1; assay: self-cleavage kobs at 2500 uM GlcN6P; higher = faster cleavage; RNA array
Outline: as §1

glucosamine-6-phosphate [3] = variants of: B1; assay: self-cleavage kobs at 10000 uM GlcN6P; higher = faster cleavage; RNA array
Outline: as §1

glucosamine-6-phosphate [4] = variants of: B1; assay: self-cleavage kobs at 160 uM GlcN6P; higher = faster cleavage; RNA array
Outline: as §1

glucosamine-6-phosphate [5] = variants of: B1; assay: KM; higher = weaker cofactor use; RNA array
Outline: as §1

glucosamine-6-phosphate [6] = variants of: B1; assay: self-cleavage kobs at 40 uM GlcN6P; higher = faster cleavage; RNA array
Outline: as §1

glucosamine-6-phosphate [7] = variants of: B1; assay: self-cleavage kobs at 640 uM GlcN6P; higher = faster cleavage; RNA array
Outline: as §1

Row | Variant | kcat (glucosamine-6-phosphate [1]) [s⁻¹] | self-cleavage kobs at 2500 uM GlcN6P (glucosamine-6-phosphate [2]) [s⁻¹] | self-cleavage kobs at 10000 uM GlcN6P (glucosamine-6-phosphate [3]) [s⁻¹] | self-cleavage kobs at 160 uM GlcN6P (glucosamine-6-phosphate [4]) [s⁻¹] | KM (glucosamine-6-phosphate [5]) [µM] | self-cleavage kobs at 40 uM GlcN6P (glucosamine-6-phosphate [6]) [s⁻¹] | self-cleavage kobs at 640 uM GlcN6P (glucosamine-6-phosphate [7]) [s⁻¹]
1 | G29U C68G | 3.07e-05 ± 6.3e-06 | 3.95e-05 ± 1.1e-05 |  |  |  |  | 
2 | G7A U45A | 3.18e-05 ± 3.1e-06 |  | 2.85e-05 ± 1.2e-05 |  |  |  | 
3 | C34G G38U | < 1e-05 |  |  | < 1e-05 |  |  | 
4 | C11G U30A | 4.67e-05 ± 2.4e-06 |  |  |  |  |  | 
5 | A12C U46C | 0.00298 ± 0.0008 | 0.00273 ± 0.00089 | 0.0026 ± 0.00058 | 0.000265 ± 5.1e-05 | 1680 ± 590 | 7.98e-05 ± 1.5e-05 | 0.000606 ± 0.00017
6 | A6G G13A | < 1e-05 |  |  | < 1e-05 |  | < 1e-05 | < 1e-05
7 | G32U | 0.00158 ± 5.1e-05 | 0.000508 ± 1e-05 | 0.00104 ± 1.4e-05 | 4.88e-05 ± 1.7e-06 | 5150 ± 240 | 1.52e-05 ± 1.4e-06 | 0.000173 ± 2.7e-06
8 | U54G C68U C70A | 6.79e-05 ± 7.7e-06 |  | 6.28e-05 ± 1.4e-05 |  |  |  | 
9 | A42U C68G | 1.72e-05 ± 6.1e-06 |  |  |  |  |  | 
10 | C11U G40C | 0.000197 ± 1.3e-05 | 8.9e-05 ± 1.4e-05 | 0.000153 ± 1.9e-05 |  | 2960 ± 470 |  | 3.93e-05 ± 1.6e-05
11 | C11U U55G C70G | 9.32e-05 ± 8.6e-06 |  | 8.94e-05 ± 1.7e-05 |  |  |  | 7.75e-05 ± 2.5e-05
12 | C50U U57C | < 1e-05 |  |  | < 1e-05 |  | < 1e-05 | 
13 | U47G U65C | 0.000283 ± 6.3e-05 | 0.000316 ± 6.8e-05 | 0.000232 ± 3.5e-05 |  |  |  | 7.88e-05 ± 2.3e-05
14 | A6C G66A | 8.29e-05 ± 2.9e-06 | 3.57e-05 ± 1.3e-05 | 6.22e-05 ± 1.2e-05 |  | 3320 ± 320 |  | 
15 | A39C U54A | 0.00479 ± 0.0015 | 0.00219 ± 0.00068 | 0.00615 ± 0.0015 | 0.000483 ± 0.00013 | 1410 ± 630 | 0.000143 ± 4.1e-05 | 0.00157 ± 0.00028
16 | A6C U55G | 0.00017 ± 7.1e-06 | 4.01e-05 ± 9.6e-06 | 9.3e-05 ± 1.1e-05 |  | 8250 ± 640 |  | 
17 | A14C U65G C70U | 0.0014 ± 0.00044 | 0.000467 ± 6.2e-05 | 0.00104 ± 0.00015 | 4.59e-05 ± 1.6e-05 |  |  | 0.000315 ± 6.8e-05
18 | G13A A36C | < 1e-05 |  | < 1e-05 |  |  |  | 
19 | A6U C50G A52U C61G C68U | 3.87e-05 ± 1.1e-05 |  | 4.51e-05 ± 1.6e-05 |  |  |  | 

Row | Variant | kcat (glucosamine-6-phosphate [1]) [s⁻¹] | self-cleavage kobs at 2500 uM GlcN6P (glucosamine-6-phosphate [2]) [s⁻¹] | self-cleavage kobs at 10000 uM GlcN6P (glucosamine-6-phosphate [3]) [s⁻¹] | self-cleavage kobs at 160 uM GlcN6P (glucosamine-6-phosphate [4]) [s⁻¹] | KM (glucosamine-6-phosphate [5]) [µM] | self-cleavage kobs at 40 uM GlcN6P (glucosamine-6-phosphate [6]) [s⁻¹] | self-cleavage kobs at 640 uM GlcN6P (glucosamine-6-phosphate [7]) [s⁻¹]
20 | G44C U46A | 7.73e-05 ± 1.3e-05 | 0.000108 ± 2.5e-05 | 7.15e-05 ± 9.9e-06 |  |  | < 1e-05 | 
21 | U47C C71U | 0.00356 ± 0.00095 | 0.00219 ± 0.00045 | 0.00312 ± 0.00038 | 0.000184 ± 6.7e-05 | 1310 ± 520 | 0.000124 ± 1.4e-05 | 0.00148 ± 0.0002
22 | G9U C50G | 2.48e-05 ± 1.1e-05 |  |  |  |  |  | 
23 | C16G U56A | 0.00335 ± 0.00047 | 0.00135 ± 0.00026 | 0.00286 ± 0.00043 | 0.000189 ± 6.3e-05 | 2810 ± 590 | 5.21e-05 ± 9.6e-06 | 0.000593 ± 0.00014
24 | U57G C71U | 6.07e-05 ± 3e-05 | 1.65e-05 ± 8e-06 | 4.47e-05 ± 6.6e-06 |  |  |  | 3.26e-05 ± 1.2e-05
25 | A53C G66C | 0.000476 ± 8.1e-05 | 0.00034 ± 0.00011 | 0.000368 ± 6.5e-05 |  | 2510 ± 780 |  | 9.27e-05 ± 1.9e-05
26 | U31A A53C | 0.00557 ± 0.0019 | 0.00162 ± 0.00025 | 0.00393 ± 0.00053 | 0.000229 ± 3.4e-05 | 5300 ± 2300 | 4.92e-05 ± 9.4e-06 | 0.000507 ± 6.9e-05
27 | C8U A42U | < 1e-05 |  |  |  |  |  | < 1e-05
28 | A14U U31C C34G A42G U47A G51A C71A | < 1e-05 |  | < 1e-05 |  |  |  | 
29 | G37A C71A | 0.000462 ± 4.6e-05 | 0.000331 ± 4.6e-05 | 0.000391 ± 3.8e-05 | 5.16e-05 ± 2e-05 | 1520 ± 410 |  | 0.000114 ± 2.7e-05
30 | G40C U46C | 0.00119 ± 0.00012 | 0.000729 ± 0.00014 | 0.000967 ± 0.00024 | 9.41e-05 ± 1.9e-05 | 1800 ± 280 |  | 0.000304 ± 6.3e-05
31 | A14C A33C | < 1e-05 |  |  |  |  | < 1e-05 | < 1e-05
32 | G29C U47C | 0.000131 ± 7.3e-06 | 7.73e-05 ± 1.5e-05 | 0.000112 ± 2.7e-05 |  | 1730 ± 250 |  | 3.72e-05 ± 1.8e-05
33 | C50G U57A | 7.3e-05 ± 1.7e-05 | 6.05e-05 ± 2.7e-05 |  | 8.31e-05 ± 1.4e-05 |  | 3.58e-05 ± 1.6e-05 | 5.84e-05 ± 1.6e-05
34 | G13U G41A | 5.17e-05 ± 3.4e-06 | 2.17e-05 ± 8.2e-06 | 3.81e-05 ± 9.2e-06 |  | 3540 ± 600 |  | 
35 | G63A U69A | 4.23e-05 ± 1.2e-05 |  |  | 5.41e-05 ± 2e-05 |  |  | 
36 | U54A G59U | 0.000197 ± 2.9e-05 |  | 5.84e-05 ± 1e-05 |  |  |  | 
37 | G63U C68A | 1.22e-05 ± 2.6e-06 |  |  |  |  |  | 
38 | G9A C61U | 0.000168 ± 1.3e-05 | 0.000144 ± 5.4e-05 | 0.000146 ± 1.8e-05 |  | 1390 ± 290 |  | 5.18e-05 ± 1.1e-05
